Experimental data: paper PMC12316982 (Nature Communications, 2025)

What was measured:
Test in all cases: ELISA
Conditions in all cases: both partners purified
[1] = molecular target: stabilized neuraminidase protein (sNAp) of A/New Caledonia/20/1999 (NC99, H1N1) (Influenza A virus A/New …, UniProt Q7TG96, stabilised)
[2] = molecular target: T1, NA of the influenza B-Victoria lineage virus B/Colorado/06/2017 (B/Vic CO17) (Influenza B virus B/Colorado/06/2017 …, UniProt A0A1X9RX69, strain)
T1 construct: not shown: His6, N-terminal, kept

[3] = molecular target: stabilized neuraminidase protein (sNAp) of A/Michigan/45/2015 (MI15, H1N1) (Influenza A virus A/Michigan/45/2015 …, UniProt A0A0X9QTS2, stabilised)

Measured: binding result

B1: NCS.1 (human IgG1) (antibody, V domains shown)
VH: QVQLPESGPRLVKPSETLSLTCSVSGESISSGGYYWTWIRQHPGKGLEWIGNIFDTGSTHYSPSLKTRLTISIDTSKNQFYLRLNSATAADTAVYYCARVGYSLETDRPYYFGLDVWGQGTTVTVSS
VL: DIVMTQSPLSLPVTPGEPASISCRSSQSLLHSNGYTYLDWYLQKPGQSPQLLIYLASNRASGVPDRFSGSGSGTYFTLKISRVEAEDVGVYYCMQAVQTPWTFGQGTKVEIK
binds: [1] | [2] | [3]

B2: NCS.1.3 (human IgG1) (antibody, V domains shown)
VH: QVQLQESGPRLVKPSETLSLTCSVSGESISSGGYYWTWIRQHPGKGLEWIGNIFDTGSTDYSPSLKTRLTISIDTSKNQFYLRLTSATAADTAVYYCARVGFSLETDRPYYLGLDVWGQGTTVTVSS
VL: DIVMTQSPLTLPVTPGEPASISCRSSQSLLHSNGYTYLDWYLQKPGQSPQLLIYFASNRASGVPDRFSGSGSGTYFTLKISRVEAEDVGVYYCMQAVQSPWTFGQGTKVEIK
binds: [1] | [2] | [3]

B3: NCS.1.1 (human IgG1) (antibody, V domains shown)
VH: QVQLQESGPRLVKPSETLSLTCSVSGESISSGGYYWTWIRQHPGKGLEWIGNIFDTGSTDYSPSLKTRLTISIDTSKNQFYLRLNSATAADTAVYYCARVGFSLETDRPYYLGLDVWGQGTTVTVSS
VL: DIVMTQSPLSLPVTPGEPASISCRSSQSLLHSNGYTYLDWYLQKPGQSPQLLISFTSNRASGVPDRFSGSGSGTYFTLKISRVEAEDVGVYYCMQAVQTPWTFGQGTKVEIK
binds: [1] | [2] | [3]
